doi:10.1101/2023.03.31.535174

Biological target: T1, AP2-I_D3 (AP2 domain 3) (Plasmodium falciparum, UniProt Q8IJW6 775-824)
T1 chain: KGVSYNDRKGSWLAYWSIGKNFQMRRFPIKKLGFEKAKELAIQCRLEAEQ
Experiment: EMSA

B1: AGTGCATTA probe with distal shape mutations (series, up to six point mutations) (dsDNA)
DNA 1: GATAAAATGAGTAAAGTGCATTAAATGTTGTACACC
DNA 2: GGTGTACAACATTTAATGCACTTTACTCATTTTATC
- binding result: binds
